The record followed here is publication doi:10.1101/270363.

The target in this test is full length nPIST (1st - 463rd aa) (mouse) (UniProt Q8BH60). The test can be described thus: SPR. (In general: SPR reads the build-up and loss of mass on a sensor chip optically.)

By Kd is commonly meant the free concentration of one partner at which half of the binding sites on the other are occupied at equilibrium, for simple one-to-one binding. Usually koff stands for a measure of how fast the partners let go of each other. Low readings indicate slow dissociation, high ones fast dissociation. By kon is commonly meant the rate constant with which the complex forms. Read a high kon as fast association. Consider “F-actin (filamentous actin) (from UniProt P68135 1-377) (natural protein)”, for which the Kd came to 13.3 nM, the off-rate (koff) is 0.00123 s⁻¹ and the on-rate (kon) came out at 92500 M⁻¹ s⁻¹.
